The target in this assay is CVA8 virion (strain 14-943/GS/CHN/2014) (coxsackievirus A8 (CVA8), strain GS14).

B1: hKRM1-Fc (human IgG Fc-fused human KRM1 ectodomain) (Fc fusion)
chain: APSPGLGPECFTANGADYRGTQNWTALQGGKPCLFWNETFQHPYNTLKYPNGEGGLGEHNYCRNPDGDVSPWCYVAEHEDGVYWKYCEIPACQMPGNLGCYKDHGNPPPLTGTSKTSNKLTIQTCISFCRSQRFKFAGMESGYACFCGNNPDYWKYGEAASTECNSVCFGDHTQPCGGDGRIILFDTLVGACGGNYSAMSSVVYSPDFPDTYATGRVCYWTIRVPGASHIHFSFPLFDIRDSADMVELLDGYTHRVLARFHGRSRPPLSFNVSLDFVILYFFSDRINQAQGFAVLYQAVKEELPQERPAVNQTVAEVITEQANLSVSAARSSKVLYVITTSPSHPPQTVPG
B1 had a neutralization of CVA8 strain GS14 infection of RD cells (cell viability assay) of 0.03 nM.

B2: mKrm1-Fc (human IgG1 Fc-fused mouse KRM1 ectodomain) (Fc fusion)
chain: APGPRSGPECFTANGADYRGTQSWTALQGGKPCLFWNETFQHPYNTLKYPNGEGGLGEHNYCRNPDGDVSPWCYVAEHEDGVYWKYCEIPACQMPGNLGCYKDHGNPPPLTGTSKTSNKLTIQTCISFCRSQRFKFAGMESGYACFCGNNPDYWKHGEAASTECNSVCFGDHTQPCGGDGRIILFDTLVGACGGNYSAMAAVVYSPDFPDTYATGRVCYWTIRVPGASRIHFNFTLFDIRDSADMVELLDGYTHRVLVRLSGRSRPPLSFNVSLDFVILYFFSDRINQAQGFAVLYQATKEEPPQERPAVNQTLAEVITEQANLSVSAAHSSKVLYVITPSPSHPPQTAPG
B2 registered a neutralization of CVA8 strain GS14 infection of RD cells (cell viability assay) of 0.32 nM.

These data come from article PMC11796367.
